Data as given in US9145555B2, “Integrated—ligand-responsive microRNAs” (California Institute of Technology, priority 2009, dated 2015).

Key:
xanthine aptamer = details: cited from earlier work
[1] = system: transcript encoding the green fluorescent protein (GFP) in HEK 293 cells stably expressing GFP; assay: Cell culture assay for miRNA activity (GFP silencing, transient transfection, flow cytometry); format: cell-based, human
Excerpt: To examine the relationship between bulge size in the basal segments and gene silencing, we developed a general cell culture assay for miRNA activity (FIG. 1D). miRNAs designed to target a transcript encoding the green fluorescent protein (GFP) were inserted into the 3′ untranslated region (UTR) of a constitutively-expressed transcript encoding the fluorescent protein DsRed-Express. Plasmid DNA encoding the DsRed-Express construct was transfected into HEK 293 cells stably expressing GFP. The level of miRNA-mediated gene silencing was determined by flow cytometry analysis, where DsRed-Express levels were used to distinguish between transfected and untransfected cells. Using the cell culture assay, miRNAs with the same bulges as in the in vitro experiments were tested for silencing efficiency. […] Therefore, proper Drosha processing and gene silencing correlate with the size of the bulge in the miRNA basal segments.
293 and Flp-In-293 cells were maintained in DMEM supplemented with 10% FBS at 37° C. in a 5% CO2—humidified incubator. Transient transfections were conducted with Fugene 6 (Roche) according to the manufacturer's instructions one day after seeding. Immediately prior to transfection, the media was supplemented with the appropriate ligand at the specified concentration. Ligand concentrations were selected to maximize the regulatory response without severely compromising cell viability over the course of the transient assays. The media was replaced two days post-transfection. Three days post-transfection, the cells were trypsinized and subjected to flow cytometry analysis on a Cell Lab Quanta SC MPL (Beckman Coulter) and the resulting data was analyzed using the Flowjo software (Tree Star). Cells were initially gated for viability by electronic volume and side scatter. GFP and DsRed fluorescence of viable cells were measured through a 525 nm and […] band pass filter, respectively, after excitation with a 488 nm laser. Moderate to high DsRed levels served as a transfection control to gate between transfected and untransfected cells. Transfected cells could be distinguished from untransfected cells with this method even when four miRNAs were present in the 3′ UTR of the DsRed-Express encoding transcript (data not shown). GFP levels were calculated as the median fluorescence of the transfected population divided by that of the untransfected population (Beisel et al., 2008). This normalization approach corrected for the bias from pleiotropic effects associated with each small molecule. All ratios were normalized such that the value for DsRed-Express lacking a miRNA under the same conditions was set to 100%.

[2] = system: transcript encoding DsRed-Express; assay: DsRed-Express levels, regulation in cis (transient transfection, flow cytometry); format: cell-based, human
Excerpt: (§1) To assess the capacity for ligand-responsive miRNAs to regulate gene expression in cis, we measured expression levels for the transcripts harboring the ligand-responsive miRNAs targeting GFP and La. DsRed-Express levels were quantified by flow cytometry under similar conditions as the trans-targeted gene silencing experiments. […] Transcript analysis confirmed that the predominant regulatory mechanism of ligand-responsive miRNAs in cis is mRNA destabilization (FIG. 10).
293 and Flp-In-293 cells were maintained in DMEM supplemented with 10% FBS at 37° C. in a 5% CO2—humidified incubator. Transient transfections were conducted with Fugene 6 (Roche) according to the manufacturer's instructions one day after seeding. Immediately prior to transfection, the media was supplemented with the appropriate ligand at the specified concentration. […] Three days post-transfection, the cells were trypsinized and subjected to flow cytometry analysis on a Cell Lab Quanta SC MPL (Beckman Coulter) and the resulting data was analyzed using the Flowjo software (Tree Star). […] GFP and DsRed fluorescence of viable cells were measured through a 525 nm and […] band pass filter, respectively, after excitation with a 488 nm laser. […] GFP levels were calculated as the median fluorescence of the transfected population divided by that of the untransfected population (Beisel et al., 2008). […]

[3] = system: immunopurified Drosha complex; assay: In vitro Drosha cleavage assay; format: biochemical
Description: We performed in vitro Drosha cleavage assays that mimic the first step in miRNA biogenesis to examine the relationship between bulge size and Drosha processing. RNAs with varying bulge sizes in the basal segments (FIG. 1B) were transcribed in vitro, incubated with immunopurified Drosha, and resolved by PAGE (FIG. 1C). […] Such abortive processing has been previously observed in vitro and attributed to DGCR8 recognition of the terminal loop instead of the miRNA basal segments (Han et al., 2006).
Internally radiolabeled RNAs were transcribed in vitro from an annealed template containing the T7 promoter (5′-[…]-3′, where G is the first transcribed nucleotide) using the Ampliscribe T7 transcription kit (Epicentre) according to the manufacturer's instructions with [α-32P]-GTP. Following transcription and DNase treatment, the transcription product was purified through a NucAway clean-up column (Ambion) according to the manufacturer's instructions and gel-purified by PAGE.
In vitro assays were conducted as described previously (Lee
and Kim, 2007). Briefly, the Drosha complex was immunopurified from 293T cells transiently transfected with pCK-Drosha-FLAG and pCK-DGCR8-FLAG (9:1 mass ratio). […]

targeted GFP transcript = assay: Self-targeting miRNA circuit, GFP levels in stable 293-Flp-In cells (flow cytometry, time course); format: cell-based, human; details: 1.5 mM theophylline for over a week; compared to th1′
Excerpt: Ligand-responsive miRNAs can regulate genes in trans through RISC targeting and in cis through Drosha cleavage. A control system based on combining both modes of regulation into ‘self-targeting miRNAs’ may offer tighter regulation while still operating within the 3′ UTR of the transgene encoding transcript. We developed a dual-acting miRNA circuit based on the insertion of ligand-responsive miRNAs or miRNA clusters into the 3′ UTR of a targeted GFP transcript (FIG. 6A), where ligand control of Drosha cleavage is expected to impact direct destabilization of the cleaved transcript and subsequent RISC-mediated inactivation of other target transcripts. The resulting constructs were stably integrated into 293-Flp-In cells to ensure consistent expression for all constructs. […]
Stable transfection of 293-Flp-In cell lines was performed using the Flp-In recombinase system (Invitrogen) according to the manufacturer's instructions to generate isogenic stable cell lines. Integrants were selected using 200 μg/ml hygromycin B (Invitrogen), whereas stable cell lines were maintained in 50 μg/ml hygromycin B. The procedure described above for the fluorescence expression analysis of transiently transfected cell populations was used to analyze the stable cell lines with notable exceptions. […]

endogenous La gene = assay: La transcript levels by qRT-PCR in stable 293-Flp-In cell lines; format: cell-based, human; details: four copies; for silencing of La transcript: 112 nt spacer, stable cell lines
Excerpt: Most of the synthetic ligand-responsive RNA-based regulatory systems are encoded in the target transcript, providing regulation in cis (Suess and Weigand, 2008). However, the regulation of endogenous genes through cis regulatory strategies is currently limiting due to the lack of directed recombination technologies. To test whether ligand-responsive miRNAs provide a trans regulatory strategy for the effective regulation of endogenous genes, we incorporated a mature miRNA sequence against the endogenous La gene into wt (La1) and th1 (La2) (FIG. 9). Four copies of each miRNA separated by the longest spacer sequence were cloned into the 3′ UTR of the transcript encoding DsRed-Express, and the resulting constructs were stably integrated into a single site in 293-Flp-In cells.
(§2) Stable transfection of 293-Flp-In cell lines was performed using the Flp-In recombinase system (Invitrogen) according to the manufacturer's instructions to generate isogenic stable cell lines. Integrants were selected using 200 μg/ml hygromycin B (Invitrogen), whereas stable cell lines were maintained in 50 μg/ml hygromycin B. The procedure described above for the fluorescence expression analysis of transiently transfected cell populations was used to analyze the stable cell lines with notable exceptions. Normalization of flow cytometry data to untransfected cells was not performed as all cells express the integrated construct, and all data was normalized to cells lacking a miRNA and grown in the absence of theophylline. Normalization to cells grown under the same conditions was not performed since theophylline differentially affected the two negative controls: no miRNA and a self-targeting miRNA lacking the theophylline aptamer.
Transcript levels were measured by qRT-PCR under either transient or stable transfection conditions. […] Samples were prepared in quadruplicate using the iQ SYBR green supermix and data were analyzed using the iCycler iQ software. […] The reported sample error was calculated using the following expression: […]

[4] = system: transcript encoding DsRed-Express; assay: DsRed-Express levels in stable cell lines with La-targeting miRNAs (flow cytometry); format: cell-based, human; details: four copies; for response of DsRed levels to theophylline: 1.5 mM theophylline; for DsRed-Express down-regulation in cis: stable cell lines
Excerpt: as §1, §2

## O=c1[nH]cnc2nc[nH]c12 [Hypoxanthine]
Xanthine aptamer
  affinity for the xanthine aptamer relative to xanthine: comparable affinity

B1: th1: SEQ ID NO. 23; GFP-targeting miRNA with a theophylline aptamer in the basal segments (nucleic acid)
chain: TCTAGAACGGGTCCTGATACCAGCGTGAGCGAGCACAAGCTGGAGTACAACTATAGTGAAGCCACAGATGTATAGTTGTACTCCAGCTTGTGCCCGCCTACGCCCTTGGCAGCAGGGCCC
modifications: expressed or natural sequence
notes: 23; GFP-targeting miRNA with a theophylline aptamer in the basal segments
[1]; single copy, absence of ligand
  GFP silencing: silence GFP with comparable strength
[1]; transient transfection with varying theophylline concentrations
  response of GFP levels to theophylline: theophylline dose-dependent increase in GFP expression levels
[1]; two copies, shortest spacer (2 nt), 5 mM theophylline
  GFP silencing and theophylline response of two miRNA copies, adjacent placement: compromised both silencing and the response to theophylline
[1]; two copies, spacer up to 112 nt, 5 mM theophylline, versus single copy
  GFP silencing and theophylline response of two miRNA copies, increased spacer length: restored and even exceeded the silencing activity and theophylline-dependence from a single copy
[1]; up to four copies separated by 112 nt spacer
  GFP silencing versus miRNA copy number: GFP silencing increased with each additional copy
[1]; up to four copies, 112 nt spacer, 5 mM theophylline
  dynamic range (ratio of GFP levels in the presence or absence of theophylline) versus copy number: increased silencing and the dynamic range
[2]; 5 mM theophylline
  ligand regulation of DsRed-Express in cis: two copies were sufficient to introduce ligand regulation
[2]; one to four copies, transient transfection
  DsRed silencing in cis versus copy number: DsRed silencing increased with increasing copy number
[3]; in vitro transcribed miRNA, PAGE
  size of primary products of Drosha processing: ~61 nts
[3]; presence or absence of 5 mM theophylline
  effect of theophylline on Drosha processing: theophylline inhibited proper processing
Targeted GFP transcript
  GFP silencing and dynamic range of self-targeting versus non-targeting miRNAs: improved both GFP silencing and the dynamic range

B2: La1: SEQ ID NO. 33; La-targeting miRNA with basal segments similar to miR-30a, no aptamer (nucleic acid)
chain: TCTAGAGTTTGACAGTGAGCGCTGGAAATCAGTGAAGATAAAATAGTGAAGCCACAGATGTATTTTATCTTCACTGATTTCCATTGCCTACTGCCTCGGACTGAATTCATAGGGCCC
modifications: expressed or natural sequence
notes: 33; La-targeting miRNA with basal segments similar to miR-30a, no aptamer
Endogenous La gene
  silencing of La transcript: relatively strong silencing
[4]
  response of DsRed levels to theophylline: not observed
  DsRed-Express down-regulation in cis: substantial DsRed-Express down-regulation

B3: La2: SEQ ID NO. 34; La-targeting miRNA with the theophylline aptamer in the basal segments (nucleic acid)
chain: TCTAGAACGGGTCCTGATACCAGCGTGAGCGCTGGAAATCAGTGAAGATAAAATAGTGAAGCCACAGATGTATTTTATCTTCACTGATTTCCATCGCCTACGCCCTTGGCAGCAGGGCCC
modifications: expressed or natural sequence
notes: 34; La-targeting miRNA with the theophylline aptamer in the basal segments
Endogenous La gene; 1.5 mM theophylline for over one week
  response of La transcript levels to theophylline: theophylline-dependent increase in La transcript levels
Endogenous La gene
  silencing of La transcript: relatively strong silencing
[4]
  response of DsRed levels to theophylline: increase in DsRed levels in the presence of theophylline
  DsRed-Express down-regulation in cis: substantial DsRed-Express down-regulation
